Assay results from FireProtDB (doi:10.1016/s0022-2836(02)00737-4).
Where “and” joins values, the source holds several entries; their conditions need not be identical. Identical values can stand only once.

B1: Tryptophan synthase alpha chain, P0A877 (parent)
chain: MERYESLFAQLKERKEGAFVPFVTLGDPGIEQSLKIIDTLIEAGADALELGIPFSDPLADGPTIQNATLRAFAAGVTPAQCFEMLALIRQKHPTIPIGLLMYANLVFNKGIDEFYAQCEKVGVDSVLVADVPVEESAPFRQAALRHNVAPIFICPPNADDDLLRQIASYGRGYTYLLSRAGVTGAENRAALPLNHLVAKLKEYNAAPPLQGFGISAPDQVKAAIDAGAAGAISGSAIVKIIEQHINEPEKMLAALKVFVQPMKAATRS

Variants of: B1
Settings: Escherichia coli (strain K12); pH 7.8; 25 °C; Urea; CD; potassium phosphate 10 mM; transition: 3; structure 1WQ5; whole UniProt chain shown

Variant	denaturant m value	denaturant midpoint (higher = more stable)	unfolding free energy
MERYESLFAQLKERKEGAFVPFVTLGDAGIEQSLKIIDTLIEAGADALELGIPFSDPLADGPTIQNATLRAFAAGVTPAQCFEMLALIRQKHPTIPIGLLMYANLVFNKGIDEFYAQCEKVGVDSVLVADVPVEESAPFRQAALRHNVAPIFICPPNADDDLLRQIASYGRGYTYLLSRAGVTGAENRAALPLNHLVAKLKEYNAAPPLQGFGISAPDQVKAAIDAGAAGAISGSAIVKIIEQHINEPEKMLAALKVFVQPMKAATRS [P28A]	1.48 kcal/mol/M and 1.04 kcal/mol/M	1.36 M and 3.66 M	2.01 kcal/mol and 3.81 kcal/mol
MERYESLFAQLKERKEGAFVPFVTLGDGGIEQSLKIIDTLIEAGADALELGIPFSDPLADGPTIQNATLRAFAAGVTPAQCFEMLALIRQKHPTIPIGLLMYANLVFNKGIDEFYAQCEKVGVDSVLVADVPVEESAPFRQAALRHNVAPIFICPPNADDDLLRQIASYGRGYTYLLSRAGVTGAENRAALPLNHLVAKLKEYNAAPPLQGFGISAPDQVKAAIDAGAAGAISGSAIVKIIEQHINEPEKMLAALKVFVQPMKAATRS [P28G]	2.15 kcal/mol/M and 1.18 kcal/mol/M	2.08 M and 4.1 M	4.47 kcal/mol and 4.84 kcal/mol
